Tested on: Escherichia coli TOP10
Assay: shrunken log2 fold change of peptide-encoding DNA abundance (4.5 h post-induction vs induction); higher = less antimicrobial activity (less host growth inhibition)
Conditions: time post-induction: 4.5 h; library: site-saturation at positions 5, 18, 19, 20
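Further: peptides expressed intracellularly from a pBAD plasmid library in pooled LB shake-flask culture, induced with 0.3% L-arabinose, DNA abundance read by NGS, three biological replicates, DESeq2 with apeglm shrinkage.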

Sequence | shrunken log2 fold change
RRIRCRPPRLPRPRPRPWYLPRP | -0.0282
RRIRCRPPRLPRPRPRPWYMPRP | -0.838
RRIRCRPPRLPRPRPRPYACPRP | -0.0609
RRIRCRPPRLPRPRPRPYAEPRP | -0.0578
RRIRCRPPRLPRPRPRPYAWPRP | -0.553
RRIRCRPPRLPRPRPRPYCIPRP | -0.565
RRIRCRPPRLPRPRPRPYDSPRP | 0.00489
RRIRCRPPRLPRPRPRPYEDPRP | -0.01
RRIRCRPPRLPRPRPRPYEWPRP | -0.0207
RRIRCRPPRLPRPRPRPYGRPRP | -0.114
RRIRCRPPRLPRPRPRPYHGPRP | -0.968
RRIRCRPPRLPRPRPRPYKHPRP | -1.04
RRIRCRPPRLPRPRPRPYMTPRP | -1.06
RRIRCRPPRLPRPRPRPYNFPRP | -0.497
RRIRCRPPRLPRPRPRPYNIPRP | -1.27
RRIRCRPPRLPRPRPRPYNRPRP | -0.0425
RRIRCRPPRLPRPRPRPYNTPRP | -0.91
RRIRCRPPRLPRPRPRPYNWPRP | -0.917
RRIRCRPPRLPRPRPRPYPHPRP | -0.438
RRIRCRPPRLPRPRPRPYQAPRP | -1.11
RRIRCRPPRLPRPRPRPYRMPRP | -0.197
RRIRCRPPRLPRPRPRPYSQPRP | -0.781
RRIRCRPPRLPRPRPRPYSYPRP | -0.0951
RRIRDRPPRLPRPRPRPAAMPRP | 1.32
RRIRDRPPRLPRPRPRPAARPRP | 0.518

Sequence | shrunken log2 fold change
RRIRDRPPRLPRPRPRPACGPRP | 0.684
RRIRDRPPRLPRPRPRPACPPRP | 0.962
RRIRDRPPRLPRPRPRPADHPRP | -0.0509
RRIRDRPPRLPRPRPRPAFGPRP | 0.238
RRIRDRPPRLPRPRPRPAHTPRP | 0.0343
RRIRDRPPRLPRPRPRPAISPRP | -0.0409
RRIRDRPPRLPRPRPRPAKFPRP | 0.0399
RRIRDRPPRLPRPRPRPAKMPRP | -0.156
RRIRDRPPRLPRPRPRPALRPRP | 0.0869
RRIRDRPPRLPRPRPRPALYPRP | 0.468
RRIRDRPPRLPRPRPRPAMPPRP | -0.107
RRIRDRPPRLPRPRPRPANLPRP | -0.0687
RRIRDRPPRLPRPRPRPAPCPRP | 0.658
RRIRDRPPRLPRPRPRPAPQPRP | 0.983
RRIRDRPPRLPRPRPRPAQAPRP | -0.0288
RRIRDRPPRLPRPRPRPAQYPRP | -0.0825
RRIRDRPPRLPRPRPRPARCPRP | 0.446
RRIRDRPPRLPRPRPRPARGPRP | 0.793
RRIRDRPPRLPRPRPRPARNPRP | 0.316
RRIRDRPPRLPRPRPRPARPPRP | 0.569
RRIRDRPPRLPRPRPRPARYPRP | 0.0754
RRIRDRPPRLPRPRPRPATGPRP | 0.312
RRIRDRPPRLPRPRPRPATKPRP | 0.318
RRIRDRPPRLPRPRPRPAVVPRP | 0.0373
RRIRDRPPRLPRPRPRPAWQPRP | 0.861

Sequence | shrunken log2 fold change
RRIRDRPPRLPRPRPRPAYRPRP | -0.0687
RRIRDRPPRLPRPRPRPCCEPRP | 0.961
RRIRDRPPRLPRPRPRPCGDPRP | 0.0915
RRIRDRPPRLPRPRPRPCHAPRP | -0.0662
RRIRDRPPRLPRPRPRPCIHPRP | -0.233
RRIRDRPPRLPRPRPRPCKAPRP | -0.0139
RRIRDRPPRLPRPRPRPCMKPRP | -0.0664
RRIRDRPPRLPRPRPRPCMTPRP | 0.33
RRIRDRPPRLPRPRPRPCNMPRP | -0.225
RRIRDRPPRLPRPRPRPCNTPRP | -0.224
RRIRDRPPRLPRPRPRPCNVPRP | 0.0436
RRIRDRPPRLPRPRPRPCNYPRP | -0.475
RRIRDRPPRLPRPRPRPCPRPRP | -0.126
RRIRDRPPRLPRPRPRPCQYPRP | -0.0971
RRIRDRPPRLPRPRPRPCRHPRP | 0.344
RRIRDRPPRLPRPRPRPCRWPRP | -0.537
RRIRDRPPRLPRPRPRPCSKPRP | 0.0354
RRIRDRPPRLPRPRPRPCVGPRP | 0.97
RRIRDRPPRLPRPRPRPCWDPRP | 0.392
RRIRDRPPRLPRPRPRPCWPPRP | 0.073
RRIRDRPPRLPRPRPRPCYNPRP | -0.271
RRIRDRPPRLPRPRPRPCYVPRP | -0.116
RRIRDRPPRLPRPRPRPCYYPRP | -0.0165
RRIRDRPPRLPRPRPRPDANPRP | 0.163
RRIRDRPPRLPRPRPRPDEEPRP | -0.00164

Sequence | shrunken log2 fold change
RRIRDRPPRLPRPRPRPDEYPRP | 0.436
RRIRDRPPRLPRPRPRPDFLPRP | 0.136
RRIRDRPPRLPRPRPRPDGEPRP | -0.0121
RRIRDRPPRLPRPRPRPDHKPRP | -0.119
RRIRDRPPRLPRPRPRPDIKPRP | 0.543
RRIRDRPPRLPRPRPRPDKEPRP | -0.0124
RRIRDRPPRLPRPRPRPDKFPRP | 0.0288
RRIRDRPPRLPRPRPRPDKWPRP | -0.0651
RRIRDRPPRLPRPRPRPDLHPRP | -0.0715
RRIRDRPPRLPRPRPRPDMKPRP | -0.00136
RRIRDRPPRLPRPRPRPDPVPRP | 0.203
RRIRDRPPRLPRPRPRPDQKPRP | -0.0052
RRIRDRPPRLPRPRPRPDRNPRP | -0.0216
RRIRDRPPRLPRPRPRPDSFPRP | -0.00691
RRIRDRPPRLPRPRPRPDVHPRP | 0.244
RRIRDRPPRLPRPRPRPDVIPRP | 0.00273
RRIRDRPPRLPRPRPRPDVQPRP | 0.0508
RRIRDRPPRLPRPRPRPDVSPRP | -0.00965
RRIRDRPPRLPRPRPRPDVWPRP | 0.511
RRIRDRPPRLPRPRPRPDYAPRP | 0.016
RRIRDRPPRLPRPRPRPDYTPRP | -0.276
RRIRDRPPRLPRPRPRPEAEPRP | 1.67
RRIRDRPPRLPRPRPRPECFPRP | 1.46
RRIRDRPPRLPRPRPRPECSPRP | 0.0314
RRIRDRPPRLPRPRPRPECWPRP | 1.84

Sequence | shrunken log2 fold change
RRIRDRPPRLPRPRPRPEGCPRP | 0.0171
RRIRDRPPRLPRPRPRPEGLPRP | 0.0425
RRIRDRPPRLPRPRPRPEGYPRP | 0.585
RRIRDRPPRLPRPRPRPEHMPRP | 0.05
RRIRDRPPRLPRPRPRPEHRPRP | -0.01
RRIRDRPPRLPRPRPRPEHYPRP | -0.0548
RRIRDRPPRLPRPRPRPEICPRP | 0.023
RRIRDRPPRLPRPRPRPEIIPRP | 0.0753
RRIRDRPPRLPRPRPRPEIQPRP | 0.7
RRIRDRPPRLPRPRPRPEKAPRP | 0.236
RRIRDRPPRLPRPRPRPEKWPRP | -0.00325
RRIRDRPPRLPRPRPRPENDPRP | 0.41
RRIRDRPPRLPRPRPRPEQRPRP | 0.0765
RRIRDRPPRLPRPRPRPEQWPRP | -0.0491
RRIRDRPPRLPRPRPRPEQYPRP | 0.215
RRIRDRPPRLPRPRPRPERWPRP | 1.3
RRIRDRPPRLPRPRPRPESMPRP | 0.0145
RRIRDRPPRLPRPRPRPETLPRP | 0.452
RRIRDRPPRLPRPRPRPEWIPRP | 0.0504
RRIRDRPPRLPRPRPRPEWMPRP | 0.764
RRIRDRPPRLPRPRPRPEWNPRP | 0.546
RRIRDRPPRLPRPRPRPEWQPRP | 0.0508
RRIRDRPPRLPRPRPRPEYPPRP | -0.0367
RRIRDRPPRLPRPRPRPFCAPRP | 0.652
RRIRDRPPRLPRPRPRPFFMPRP | 0.033

Sequence | shrunken log2 fold change
RRIRDRPPRLPRPRPRPFFWPRP | 0.504
RRIRDRPPRLPRPRPRPFHMPRP | 0.0426
RRIRDRPPRLPRPRPRPFINPRP | -0.337
RRIRDRPPRLPRPRPRPFIRPRP | -0.29
RRIRDRPPRLPRPRPRPFLMPRP | -0.0685
RRIRDRPPRLPRPRPRPFNAPRP | -0.0419
RRIRDRPPRLPRPRPRPFQCPRP | 0.00675
RRIRDRPPRLPRPRPRPFQEPRP | -0.137
RRIRDRPPRLPRPRPRPFTPPRP | -0.38
RRIRDRPPRLPRPRPRPFTYPRP | -0.0134
RRIRDRPPRLPRPRPRPFVWPRP | 0.525
RRIRDRPPRLPRPRPRPFWRPRP | 0.0187
RRIRDRPPRLPRPRPRPFYTPRP | -0.687
RRIRDRPPRLPRPRPRPGCIPRP | -0.158
RRIRDRPPRLPRPRPRPGDRPRP | -0.00192
RRIRDRPPRLPRPRPRPGEFPRP | -0.117
RRIRDRPPRLPRPRPRPGEGPRP | 1.41
RRIRDRPPRLPRPRPRPGEIPRP | 0.501
RRIRDRPPRLPRPRPRPGFYPRP | 0.00794
RRIRDRPPRLPRPRPRPGGRPRP | 0.569
RRIRDRPPRLPRPRPRPGKSPRP | 0.0637
RRIRDRPPRLPRPRPRPGNEPRP | -0.159
RRIRDRPPRLPRPRPRPGNPPRP | -5.31e-05
RRIRDRPPRLPRPRPRPGQAPRP | 0.0989
RRIRDRPPRLPRPRPRPGSEPRP | 0.0708
